Tests used:
Assay in all cases: target-induced aptamer displacement, RDV release by UV-vis at 247 nm
[1] = tested on: cytochrome c; settings: 2 uM cytochrome c; 3'-SH on aptamer; 5'-COOH on complementary strand; Release assay buffer and temperature not given; Au-DNA stored in PBS (137 mM NaCl, 2.7 mM KCl, 10 mM Na2HPO4, 1.75 mM KH2PO4, 50 mM MgCl2, pH 7.4)
[2] = tested on: hemoglobin (HGB); settings: 2 uM HGB; 3'-SH on aptamer; 5'-COOH on complementary strand; Release assay buffer and temperature not given; Au-DNA stored in PBS (137 mM NaCl, 2.7 mM KCl, 10 mM Na2HPO4, 1.75 mM KH2PO4, 50 mM MgCl2, pH 7.4)
[3] = tested on: alkaline phosphatase (AKP); settings: 20 U/mL AKP; 3'-SH on aptamer; 5'-COOH on complementary strand; Release assay buffer and temperature not given; Au-DNA stored in PBS (137 mM NaCl, 2.7 mM KCl, 10 mM Na2HPO4, 1.75 mM KH2PO4, 50 mM MgCl2, pH 7.4)
[4] = tested on: fibrinogen (FIB); settings: 2 uM FIB; 3'-SH on aptamer; 5'-COOH on complementary strand; Release assay buffer and temperature not given; Au-DNA stored in PBS (137 mM NaCl, 2.7 mM KCl, 10 mM Na2HPO4, 1.75 mM KH2PO4, 50 mM MgCl2, pH 7.4)
[5] = tested on: immunoglobulin G (IgG); settings: 2 uM IgG; 3'-SH on aptamer; 5'-COOH on complementary strand; Release assay buffer and temperature not given; Au-DNA stored in PBS (137 mM NaCl, 2.7 mM KCl, 10 mM Na2HPO4, 1.75 mM KH2PO4, 50 mM MgCl2, pH 7.4)

GCTGGATGTCGCTTACGACAATATTCCTTAGGGGCACCGCTACATTGACACATCCAGC / TTGTACTGGCTCATAGCTGGATGTGTCAATGTAGCGGTGCCCCTAAGGAATATTGTCGTAAGCG
binding signal (% of N protein signal) [1]: 9.13 | binding signal (% of N protein signal) [2]: 6.22 | binding signal (% of N protein signal) [3]: 11.6 | binding signal (% of N protein signal) [4]: 4.56 | binding signal (% of N protein signal) [5]: 7.05

From paper PMC9688528
